Target: T1, human ILT3 on the cell surface (recombinant human ILT3 exogenously overexpressed on HEK cells); ILT3 on THP-1 … (human, UniProt Q8NHJ6 22-448)
T1 construct: whole, on cells; also called membranal ILT3; hILT3
Assay: flow cytometry on HEK cells overexpressing recombinant human ILT3

Binder | binding result
3F6 (antibody, V domains shown, Hybridoma (mouse) antibody) VH: EVKLVESGGGLVKPGGSLKLSCAASGFTFSSYAMSWVRQTPAKRLEWVAAITFGGGNTYYPDSVKGRFTISRDNARNTLYLQMSSLRSEDTAMYYCARHGDGNYDFYAMDYWGQGTSVTVSS VL: DIVMTQSPSSLTVTAGEKVTMSCKSSQSLLNSGNQKNYLTWYQQKPGQPPKLLIYWASTRESGVPDRFTGSGSRTDFTLTISRVQAEDLAVYYCQNDYSYPLTFGAGTKLELK | binds
7A5 (antibody, V domains shown, Hybridoma (mouse) antibody) VH: EVKLVESGGGLVKPGGSLKLSCAASGFTFSSYAMSWVRQTPAKRLEWVATISSDGGNTYYTDSVKGRFTISRDNARNTLDLQMSSLRSEDTAMYYCARHDGRGALDYWGQGTSVTVSS VL: DIQMTQTTSSLSASLGDRVTISCRASQDISNYLNWYQQKPDGTVKLLIYYTSRLHSGVPSRFSGSGSGTDYSLTISNLEQEDIATYFCQQGNTLPWTFGGGTKLEIK | binds
